# Laboratory results taken from patent publication US20220064303A1 (GIGAGEN, published 2022).
# What was measured:
# [1] = target: CTLA-4 on CTLA-4 effector cells (CTLA-4 Blockade Bioassay, Promega) (UniProt P16410 36-223, limits assumed); assay: cell-based or functional assay
# Cyno CTLA4 = target: T1, Cyno CTLA4 (cyno, UniProt G7PL88 36-161); assay: BLI (Octet Red96), mAb on AHC biosensor, antigen as analyte
# T1 construct: Soluble antigen used as analyte in BLI
# Procedure: The binding specificity and affinity of each full-length antibody towards CTLA-4 were determined using biolayer interferometry (BLI) and/or surface plasmon resonance (SPR). Anti-cyno CTLA-4 and anti-mouse CTLA-4 affinities were tested using ForteBio (BLI). Anti-human CTLA-4 affinities were measured using Carterra (SPR).
# For BLI, antibodies were loaded onto an Anti-Human IgG Fc (AHC) biosensor using the Octet Red96 system (ForteBio). Loaded biosensors were dipped into antigen dilutions beginning at 300 nM, with 6 serial dilutions at 1:3. Kinetic analysis was performed using a 1:1 binding model and global fitting.
# Sequence of CTLA-4 on CTLA-4 effector cells (CTLA-4 Blockade Bioassay, Promega) (P16410 36-223 limits assumed): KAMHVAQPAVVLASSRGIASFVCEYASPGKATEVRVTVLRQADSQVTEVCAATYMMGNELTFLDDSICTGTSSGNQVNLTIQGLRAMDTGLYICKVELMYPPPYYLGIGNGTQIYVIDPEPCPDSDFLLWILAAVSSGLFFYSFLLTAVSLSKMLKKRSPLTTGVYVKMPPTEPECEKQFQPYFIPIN
# T1 sequence (G7PL88 entry or part of it): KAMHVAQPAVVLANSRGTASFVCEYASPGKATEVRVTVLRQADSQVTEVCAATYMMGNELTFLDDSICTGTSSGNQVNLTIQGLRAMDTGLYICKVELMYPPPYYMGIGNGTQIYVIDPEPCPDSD
Binder,Promega assay % inhibition [1],Kd (Cyno CTLA4)
"A23 (antibody, V domains shown) VH: QVQLVQSGAEVKKPGASVKVSCKASGYTFTSYGISWVRQAPGQGLEWMGWISAYNGNTYYAQKFQGRVTMTTDTSTSTAYVELRSLRSDDTAVYYCARVTGRDAFDIWGQGTMVTVSS VL: not shown",0%,–
"A28 (antibody, V domains shown) VH: QVQLVESGGGVVQPGRSLGLSCAASGFTFSTYGMHWVRQAPGKGLEWVAVTLYDGSNKYYADSVKGRFTISRDNSKNTLYLQMNSLRAEDTAVYYCARASLTGSFDYWGQGTLVTVSS VL: not shown",0%,–
"Ipilimumab (antibody, V domains shown) VH: QVQLVESGGGVVQPGRSLRLSCAASGFTFSSYTMHWVRQAPGKGLEWVTFISYDGNNKYYADSVKGRFTISRDNSKNTLYLQMNSLRAEDTAIYYCARTGWLGPFDYWGQGTLVTVSS VL: not shown",–,1.3 nM
